Reference: patent US20230057987A1 (published 2023)

T1: similar peptide SP-05-0009, source protein not stated peptide on HLA-A*02:01 (human)
T1 peptide: KIIDLLPKV

T2: similar peptide SP-05-0010, source protein not stated peptide on HLA-A*02:01 (human)
T2 peptide: RIFETVNSV

T3: CT45-IP alanine variant, position 4 peptide on HLA-A*02:01 (human)
T3 peptide: KIFAMLEGV

T4: similar peptide SP-05-0008, source protein not stated peptide on HLA-A*02:01 (human)
T4 peptide: KILDELEKV

T5: similar peptide SP-05-0005, source protein not stated peptide on HLA-A*02:01 (human)
T5 peptide: KIEEFLEAV

T6: CT45-IP alanine variant, position 3 peptide on HLA-A*02:01 (human)
T6 peptide: KIAEMLEGV

T7: CT45-IP alanine variant, position 6 peptide on HLA-A*02:01 (human)
T7 peptide: KIFEMAEGV

T8: similar peptide SP-05-0003, source protein not stated peptide on HLA-A*02:01 (human)
T8 peptide: KVTEMLVNV

T9: CT45-IP alanine variant, position 8 peptide on HLA-A*02:01 (human)
T9 peptide: KIFEMLEAV

T10: CT45-IP alanine variant, position 1 peptide on HLA-A*02:01 (human)
T10 peptide: AIFEMLEGV

T11: similar peptide SP-05-0006, source protein not stated peptide on HLA-A*02:01 (human)
T11 peptide: KIAELLENV

T12: similar peptide SP-05-0007, source protein not stated peptide on HLA-A*02:01 (human)
T12 peptide: KIFPALCTV

T13: similar peptide SP-05-0004, source protein not stated peptide on HLA-A*02:01 (human)
T13 peptide: KIWEWLVGV

T14: similar peptide SP-05-0002, source protein not stated peptide on HLA-A*02:01 (human)
T14 peptide: KIFSGLLKV

T15: similar peptide SP-05-0001, source protein not stated peptide on HLA-A*02:01 (human)
T15 peptide: HIMEHLEGV

T16: CT45 (CT45A1, A2, A3, A5 to A10); CT45-IP peptide on HLA-A*02:01 (human)
T16 peptide: KIFEMLEGV

T17: CT45-IP alanine variant, position 7 peptide on HLA-A*02:01 (human)
T17 peptide: KIFEMLAGV

B1: TCR-8 (TCR, V domains shown)
Valpha: QKVTQAQTEISVVEKEDVTLDCVYETRDTTYYLFWYKQPPSGELVFLIRRNSFDEQNEISGRYSWNFQKSTSSFNFTITASQVVDSAVYFCALSGRGSGTYKYIFGTGTRLKVLA
Vbeta: GVIQSPRHLIKEKRETATLKCYPIPRHDTVYWYQQGPGQDPQFLISFYEKMQSDKGSIPDRFSAQQFSDYHSELNMSSLELGDSALYFCASSAGTSYNEQFFGPGTRLTVL
B2: TCR-14 (TCR, V domains shown)
Valpha: QKITQTQPGMFVQEKEAVTLDCTYDTSDQSYGLFWYKQPSSGEMIFLIYQGSYDEQNATEGRYSLNFQKARKSANLVISASQLGDSAMYFCAINGLPGSARQLTFGSGTQLTVLP
Vbeta: GVAQSPRYKIIEKRQSVAFWCNPISGHATLYWYQQILGQGPKLLIQFQNNGVVDDSQLPKDRFSAERLKGVDSTLKIQPAKLEDSAVYLCASSRFVATGTSPLHFGNGTRLTVT

Columns and labels:
[1] = molecular target: CT45-IP antigenic peptide (…) in complex with HLA-A*02 presented on cells (peptide-loaded T2 cells; NCIH1703 and A375 tumor cells) (human); assay: cell-based or functional assay
[2] = molecular target: T1, similar peptide SP-05-0009, source …; assay: killing
[3] = molecular target: T2, similar peptide SP-05-0010, source …; assay: killing
[4] = molecular target: T3, CT45-IP alanine variant, position 4 …; assay: killing
[5] = molecular target: T4, similar peptide SP-05-0008, source …; assay: killing
[6] = molecular target: T5, similar peptide SP-05-0005, source …; assay: killing
[7] = molecular target: T6, CT45-IP alanine variant, position 3 …; assay: killing
[8] = molecular target: T7, CT45-IP alanine variant, position 6 …; assay: killing
[9] = molecular target: T8, similar peptide SP-05-0003, source …; assay: killing
[10] = molecular target: T9, CT45-IP alanine variant, position 8 …; assay: killing
[11] = molecular target: T10, CT45-IP alanine variant, position 1 …; assay: killing
[12] = molecular target: T11, similar peptide SP-05-0006, source …; assay: killing
[13] = molecular target: T12, similar peptide SP-05-0007, source …; assay: killing
[14] = molecular target: T13, similar peptide SP-05-0004, source …; assay: killing
[15] = molecular target: T14, similar peptide SP-05-0002, source …; assay: killing
[16] = molecular target: T15, similar peptide SP-05-0001, source …; assay: killing
[17] = molecular target: T16, CT45 (CT45A1, A2, A3, A5 to A10); …; assay: luciferase release, 24 h, 1:1; CD8+ T cells with TCR mRNA, T2 cells with titrated peptide; full-length, on cells
[18] = molecular target: T16, CT45 (CT45A1, A2, A3, A5 to A10); …; assay: CT45-IP-HLA-A*02 dextramer on T cells with TCR mRNA; TCR found by tetramer sorting; full-length, on cells
[19] = molecular target: CT45-IP-HLA-A*02 dextramer (human); assay: flow cytometry, dextramer staining of TCR-mRNA electroporated T cells, gated on CD3+
[20] = molecular target: T17, CT45-IP alanine variant, position 7 …; assay: killing

Row | EC50 of peptide [17] | dextramer-positive events [18] | surface expression, % positive events by CT45-IP-HLA-A2*02 dextramer staining [19] | Binder | EC50, half maximal killing capacity (functional avidity; CT45-IP peptide titration on T2 cells, luciferase release) [1] | binding result [2] | binding result [3] | binding result [4] | binding result [5] | binding result [6] | binding result [7] | binding result [8] | binding result [9] | binding result [10] | binding result [11] | binding result [12] | binding result [13] | binding result [14] | binding result [15] | binding result [16] | binding result [20]
1 | 6.52 nM | 60.7% | 60.7% | B1 | 6.52 nM | no recognition | no recognition | recognises | no recognition | no recognition | recognises | recognises | no recognition | recognises | recognises | no recognition | no recognition | no recognition | no recognition | no recognition | 
2 | 17.7 nM | 11.6% | 11.6% | B2 | 17.7 nM | no recognition | no recognition |  | no recognition | no recognition |  | recognises | no recognition | recognises |  | no recognition | no recognition | no recognition | no recognition | no recognition | recognises
